Measurements from the DeepSol protein solubility set.

test: soluble on expression in E. coli; label from the status in PepcDB or PDB records

| Sequence | soluble on expression in E. coli |
| --- | --- |
| MTKITLSDLPLREELRGEHAYGAPQLNVDIRLNTNENPYPPSEALVADLVATVDKIATELNRYPERDAVELRDELAAYITKQTGVAVTRDNLWAANGSNEILQQLLQAFGGPGRTALGFQPSYSMHPILAKGTHTEFIAVSRGADFRIDMDVALEEIRAKQPDIVFVTTPNNPTGDVTSLDDVERIINVAPGIVIVDEAYAEFSPSPSATTLLEKYPTKLVVSRTMSKAFDFAGGRLGYFVANPAFIDAVMLVRLPYHLSALSQAAAIVALRHSADTLGTVEKLSVERVRVAARLEELGYAVVPSESNFVFFGDFSDQHAAWQAFLDRGVLIRDVGIAGHLRTTIGVPEENDAFLDAAAEIIKLNLSAWSHPQFEK | soluble |
| RAIGQIRSADGGRTVDVDLAQPLHDWRVLFNNLLPSHVLRGGDSDFSTVLADGIPASAGRYSFAGVDRQRGIVTLNRNDRFWGEKPATVENIKFREVTDIAQGRELLRTGQIKFLDITPTEVAREAFELMPNTQVRTTTTSLNLQLIANTHLTLEQRADLQSLIDVHTVARIAMGRSTDLGVGDQPYEPHADHLMSLGRPVRIGVDPSDPEAQMAARVLSDVLARKSVKTQLVETDTTDLIGSK | not soluble |
| MSLKICVIGSSGHFRYALEGLDEECSITGIAPGVPEEDLSKLEKAISEMNIKPKKYNNWWEMLEKEKPDILVINTVFSLNGKILLEALERKIHAFVEKPIATTFEDLEKIRSVYQKVRNEVFFTAMFGIRYRPHFLTAKKLVSEGAVGEIRLVNTQKSYKLGQRPDFYKKRETYGGTIPWVGIHAIDWIHWITGKKFLSVYATHSRLHNSGHGELETTALCHFTLENEVFASLSIDYLRPQGAPTHDDDRMRIVGTRGIVEVINERVFLTDEKGHREVPLVEKGQIFEDFLREIRGQGKCMVTPEDSILTTEIALKARLSADTGQIVLIEGHHHHHH | soluble |
| MAASVEQREGTIQVQGQALFFREALPGSGQARFSVLLLHGIRFSSETWQNLGTLHRLAQAGYRAVAIDLPGLGHSKEAAAPAPIGELAPGSFLAAVVDALELGPPVVISPSLSGMYSLPFLTAPGSQLPGFVPVAPICTDKINAANYASVKTPALIVYGDQDPMGQTSFEHLKQLPNHRVLIMKGAGHPCYLDKPEEWHTGLLDFLQGLQ | soluble |
| MGSDKIHHHHHHMGLFDFLKKGLQKTKETFFGRVVKLLKGKKLDDETREELEELLIQADVGVETTEYILERLEEKDGDALESLKEIILEILNFDTKLNVPPEPPFVIMVVGVNGTGKTTSCGKLAKMFVDEGKSVVLAAADTFRAAAIEQLKIWGERVGATVISHSEGADPAAVAFDAVAHALARNKDVVIIDTAGRLHTKKNLMEELRKVHRVVKKKIPDAPHETLLVIDATTGQNGLVQAKIFKEAVNVTGIILTKLDGTAKGGITLAIARELGIPIKFIGVGEKAEDLRPFDPEAFVEVLLSE | soluble |
| AHHHHHHGSPVYEINGIKPKIHPTAYVDENAVIIGDVVLEEKTSVWPSAVLRGDIERIYVGKYSNIQDNVSIHTSHGYPTEIGEYVTIGHNAVVHGAKIGNYVIIGMGAIILDGAKIGNHVIIGAGALVPPNKEIPDYSLVIGVPGKVVRQLSEEEIEWTKKNAEVYVELAEKHMKGRKKIMIYRIISHIPSIFFKPAYDLYERYLLEKVKAGVIPKHVAIIMDGNRRWARKREKPPWYGHFFGSKKLEEIVEWCHELGIRILTVYAFSTENFKRSKEEVDRLMKLFEEKFRELVTDRRVHEYGIRVNVMGRKELLPKNVREAAEEAERVTRKYNNYFLNIALAYGGRSEIVDAIKDIVNDVLEGRLKLEDINEEIVRKYLYVPNMPDPDIVIRTGGEVRISNFLLYQIAYSELFFVDVYFPEFRKIDFLRIIREFQKRERRFGR | soluble |
| MYDKLLPMERIHIEVFEPFNGEAIEGKYSYVLLCRDYRSSFMWLLPLKSTKFKHLIPVVSSLFLTFARVPIFVTSSTLDKDDLYDICEEIASKYGLRIGLGLKSSARFHTGGILCIQYALNSYKKECLADWGKCLRYGPYRFNRRRNKRTKRK | soluble |
| MGSDKIHHHHHHAHTRAIDNIANSGDMVTMSGTVKLYAKTAQDGGVVNTLTLQVSDFTGLDTGTGSKTVEISGAATYIEVEGNIDGSATKTDDVNSRQGGVTSDAVRVVGGAAIVTGGSTSTCSIEVAPEMARVEVKGDLGSSFTNLAELKVKGIYLNNVKQKRADAAVVKTTKASAPDWTTAYTAGGTKSNLYNTFIGTPITKFDSGKADGYNFFPQDFHIASLSAAATTKEEAAKYHPHVIMEVEYKMNGVGALSKTGWLNVVALKDNTSSSYIGEFANGKVYQLDLADIKKIMDVPVPPVTVDPDPDAVNVDVTVTVKGWELVFIKPEV | not soluble |
| MADTSCKLKPLCFRFVSTLKSPIAVITVTYSPGKYLASFLDSLPGATSRDTHVVMADNGSVDGVPEQAAASRSNVEFLSTGGNLGYGTAINIAARSLRARREAGEIDGEFFLVSNPDVVFDEDSIDQLLECAKRHPEAGAVGPLIREADGSAYPSARAVPTLANGIGHALLGAVWKSNPWSAAYRDDEDMDTERTAGWLSGSCLLLRWDAFDRVGGFDERYFMYMEDVDLGDRLVRAGFTNVFCPSAQIIHAKGHVAGKNPENMLPAHHESAYRFQADRLAKPWQAPIRLALRIGLKLRAGVAVGVSKMRTKASLEHHHHHH | not soluble |
| MVEDTKTQMAAAISATLVFAARRRPLFCSLSSSSSSKPNTRKLVLYSKPGCCLCDGLKEKLHAAFTLSTGPDSLNDVTLQVRDITTNPEWERAYQYEIPVLAKENSDGKEEVLPRLSPRLSAELIQKKLLAAFS | not soluble |
| GSLQDNSSYPDEPWRITEEQREYYVNQFRSLQPDPSSFISGSVAKNFFTKSKLSIPELSYIWELSDADCDGALTLPEFCAAFHLIVARKNGYPLPEGLPPTLQPEFIVTD | soluble |
| MGSDKIHHHHHHMSDNDLQRRILDAVDAGFDAQLATTRDFVAIPSTRGAEGPCQDMIGDLLRQRGYEVDDWHIDLDDLKDLRGYGPIEHDFSKARTVVGTYRPSTNAGRSLILQGHCDVVPAGPLEMWDTPPFSPVIKQGRMYGRGACDMKSGTIGALYALDAIKAAGLRPTGRIHFQSVIEEESTGVGALSTLQRGYRADACFIPEPTGGKMVRSQVGVIWFRLKVRGYPVHVATAGTGSNAITAAYHLIDALGKLEEEWNRRAASDPHFKTLAHPINFNPGIIKGGDWASSVPAWCDVDCRIAILPGWSVADHQAEILACVSAAARDHRFLSNNPPQVEWSGFLSEGYELKNAAEPEAAFGKAYQAVYGSEVEDLVFTALTDTRFYGLNYNIPSLCFGASGEAMHGFNEYIDLESLRQSTKATALFIAEWCGVEPA | not soluble |
| MGSDKIHHHHHHLTLMGLSVTDYDSEMPDATEPGTTERSLVELLLAEGPSTRLELQAKLGVSRPTLSSAVNKLLSLGLLQEQGTAAYGAGRNGRPQALLAPNRAMGAAVGIELGKAQVAVTILAIDGTVHAQKVTSTSPGTTLQRRLNIALGSVGTFISSNILNPESVLGVGVGVSGLHPDARPAGGSALVDPPGAKLDKLRTLLAAPVVWDNNTRMATFRHLGGSGLDSPGAVLYVVLSAGVSAGIVDGGEVLRGRGAAGELGHVCLDPEGPVCGCGSRGCLEAYVGVEAVLRSARGKGATVADLEELAAVVQSGDADALAVIGLVGRMLGIGLNNAAMLVDPRRIILTGPLLSLGPALVSAATEELRIRRMAVTLGVPDVVAEIGSPFDSSHGAALTALRRWGPGFMGMLTQNGIATTG | not soluble |
| MGSDKIHHHHHHMNRGMKNYLSQTNYRDAMKAADIMNSNVIYATLPSTRDKVLELFKKYEISAVPVLKNSELVGIVTRKDILRKIEENQLALLMTPNPTTVDADADVKEVVKILTSTPFRRLPVVKDGKLVGIITVRDIIKKIAEMNIEKPVKSYITPYIVCVWEETPLNVVGEIMRLSNSEFVGILNDNDELVGVIDEKIMLTETLIEDFIEQTAYSSSSDTDDSWSWDSVRDYTVKYFEVSVVKLPKEPVKNFMKKPEFVYPQTSVSKCAKRMVRSDLDYIPVLDSENRLIGTVRDKDLIRVLLEV | not soluble |
| NHELDWSDIKGQHHAKNAMVIAACGGHSILLSGAPGSGKTMMAKRFSTLLPELSETQALECAAINSIRGKLPDFREWRLPPFRAPHHTASPVALVGGGNPPKPGEISLAHHGVLFLDELPEFNRQVLETLREPLESGHICISRAAAQIEFPAKFQLIAAMNPCPCGQWGNSQANCLCTPDRI | not soluble |
| MAHHHHHHMDVSQFLKSFKKNVAAKSKRSSSVRQSDEAANSGAEEDVTEIFHSASDSEADGEAEDGEVILGGRADKMAGKRYTRNMDHSKRNREFAALKVVETNSVPAVEAGRFQRQRAALARQATDARKPPRTEMIASVRAELLRQREKLRGSNALDSANQLDASVQKMETTMIEVEDLLQASAPTAATSASVLDFLPAAPLPAPRQATLTTASRAASIAVALSEPQPPSSSVTNGRAGTPTVNDPALEEPPKLPKKRTKFELAMAMAHDEVAS | not soluble |
| MGSDKIHHHHHHMYVAVKGGETAIANAHSLLADRRRGDRSLPTMTVDQIVEQLTLAVGRVMAEASLYDRKLAALAIKQARGDMIEAIFLLRAYRTTLPRFGLSEPVDTGAMRIERRISATYKDLPGGQLLGPTFDYTHRLLDPSLLEEGDVEPPVQKIPTSEAAMRVSDILREEGLIEPDGDMPEDHLAGDITRQPIEFPMARDLRLQSLARGDEGFLLALAYSTQRGYGRSHPFAGEIRLGEVEVELDVPELGFAVSLGRIQVTECQMVNQFKGSSKAPPQFTRGYGLVFGQSERKAMAMSLVDRSLRAEELGEDITAPAQDQEFVLSHCDNVQATGFVEHLKLPHYVDFQAELDLVRRMRSEHEQARQQGLDLSEAAE | not soluble |
| RADLQYLLNHPDPTEYKEKPLPYPFLTHWLHDIQEQTISKRLDESAGSAGEVSFIFVPCYLNRKDGIFGLGYYDLLIGMDLTVFPSYYEPWGYTPLES | not soluble |
| MGSDKIHHHHHHMKKIIIVSCLMSGVLNFGYSITTESIPTCSSFLSKLLSTAKSDTLSKVKLENCTFEEFKNNYDKDKFPVEFRNNQEEKSFYRHLKERDNYAGISNLYDMWKWVRFNRGFLEQQNEKLFHVYDKLNEVGINPESLDSMSYLNLKGINENINALTESINPSVEAIKYLLPDFEKYVAAYEKLAKEGDSLSYSDFKKASGRGATTANIQQIDQRILHQFRKEMHMNTANTAAMSSLNFGNGYGVSVGAAIGGHKGQYSLALGTAYTDYQTQVNVKIALPVKQPKPSNITYGVGFVYNFQ | not soluble |
| MKTLVELPLLPLRDVVVYPHMVIPLFVGREKSIEALEAAMTGDKQILLLAQKNPADDDPGEDGLYRMGTVATVLQLLKLPDGTVKVLVEGEQRGQVERFIEEEGHIRAAVQAIDDANVGEREAEVFTRSLLSQFEQYVQLGKKVPAEVLSSLNSIDEPSRLVDTMAAHMALKIEQKQDILEITDLSSRVEHVLALLDAEIDLLQVEKRIRGRVKKQMERSQREYYLNEQMKAIQKELGDIDEGHNEVEELKKRIDAAGLTKEAHTKATAELNKLKQMSPMSAEATVVRSYIDWLLNVPWKAESKVRHDLAKAEDILDADHYGLEEVKERILEYLAVQKRVKKLKGPVLCLVGPPGVGKTSLAESIARATNRKFVRMALGGVRDEAEIRGHRRTYIGSMPGRLIQKMTKVGVRNPLFLLDEIDKMGSDMRGDPASALLEVLDPEQNHNFNDHYLEVDYDLSDVMFLCTANSMNIPAPLLDRMEVIRLPGYTEDEKVNIAAKYLIPKQVQANGLKKGELTFEEGALRDIIRYYTREAGVRSLERQIAKVCRKAVKEHAKLKRIQAVVSSETLENYLGVRKFRYGLAEQQDQIGQVTGLAWTQVGGELLTIEAAVVPGKGQLTKTGSLGDVMAESITAALTVVRSRAQSLGIAADFHEKRDIHIHVPEGATPKDGPSAGIGMCTALVSAITQIPVRADVAMTGEITLRGQVLAIGGLKEKLLAAHRGGIKTVIIPEENVRDLKEIPDNIKSDLVIKPVKWIDEVLQIALQYAPEPLPDAAPEMVAKDEKREPDSKERIST | not soluble |
